Key:
SEC = biological target: the molecule itself; assay: SEC
crystal structure = biological target: the molecule itself; assay: crystal structure

B1: protein product of the Arabidopsis thaliana gene locus At1g05000 (enzyme, UniProt Q9ZVN4 1-215, looked up)
chain: SKLVEKTTTTEQDNGEDFCRTIIEVSEVNRNVFQAPGGEADPFRVVSGEELHLIPPLNFSMVDNGIFRSGFPDSANFSFLQTLGLRSIIYLCPEPYPESNLQFLKSNGIRLFQFGIEGNKEPFVNIPDHKIRMALKVLLDEKNHPVLIHCKRGKHRTGCLVGCLRKLQKWCLTSIFDEYQRFAAAKARVSDQRFMEIFDVSSFSHIPMSFSCSIR
modifications: selenomethionine-labeled
stoichiometry N (SEC): 2
stoichiometry N (crystal structure): 6
